# Results published in patent US20120208867A1.
# Key:
# [1] = target: TLR-2 in which His-tag was added to the N-terminus (His-tag-added TLR-2); test: pull-down of HMGB1 (2 ug) with His-tag-added TLR-2 (2 ug) on Co2+ agarose beads, Western blot with anti-HMGB1 antibody; lane '-': no tRNA, no RNA aptamer
# [2] = target: TLR-2 in which His-tag was added to the N-terminus (His-tag-added TLR-2); test: pull-down of HMGB1 (2 ug) with His-tag-added TLR-2 (2 ug) on Co2+ agarose beads, Western blot with anti-HMGB1 antibody; lane '+': tRNA added, no RNA aptamer (reference lane, set to 100)
# [3] = target: TLR-2 in which His-tag was added to the N-terminus (His-tag-added TLR-2); test: pull-down of HMGB1 (2 ug) with His-tag-added TLR-2 (2 ug) on Co2+ agarose beads, Western blot with anti-HMGB1 antibody; tRNA added, in the presence of 1 ug of RNA aptamer R8c6_1-18 as inhibitor
# [4] = target: TLR-2 in which His-tag was added to the N-terminus (His-tag-added TLR-2); test: pull-down of HMGB1 (2 ug) with His-tag-added TLR-2 (2 ug) on Co2+ agarose beads, Western blot with anti-HMGB1 antibody; tRNA added, in the presence of 2 ug of RNA aptamer R8c6_1-18 as inhibitor
# [5] = target: TLR-2 in which His-tag was added to the N-terminus (His-tag-added TLR-2); test: pull-down of HMGB1 (2 ug) with His-tag-added TLR-2 (2 ug) on Co2+ agarose beads, Western blot with anti-HMGB1 antibody; tRNA added, in the presence of 4 ug of RNA aptamer R8c6_1-18 as inhibitor
# [6] = target: TLR-2 in which His-tag was added to the N-terminus (His-tag-added TLR-2); test: pull-down of HMGB1 (2 ug) with His-tag-added TLR-2 (2 ug) on Co2+ agarose beads, Western blot with anti-HMGB1 antibody; tRNA added, in the presence of 1 ug of 40N RNA library (comparative example)
# [7] = target: TLR-2 in which His-tag was added to the N-terminus (His-tag-added TLR-2); test: pull-down of HMGB1 (2 ug) with His-tag-added TLR-2 (2 ug) on Co2+ agarose beads, Western blot with anti-HMGB1 antibody; tRNA added, in the presence of 2 ug of 40N RNA library (comparative example)
# [8] = target: TLR-2 in which His-tag was added to the N-terminus (His-tag-added TLR-2); test: pull-down of HMGB1 (2 ug) with His-tag-added TLR-2 (2 ug) on Co2+ agarose beads, Western blot with anti-HMGB1 antibody; tRNA added, in the presence of 4 ug of 40N RNA library (comparative example)
# Chain of HMGB1 protein (High-mobility group box 1 protein) (ligand) (P09429 whole entry): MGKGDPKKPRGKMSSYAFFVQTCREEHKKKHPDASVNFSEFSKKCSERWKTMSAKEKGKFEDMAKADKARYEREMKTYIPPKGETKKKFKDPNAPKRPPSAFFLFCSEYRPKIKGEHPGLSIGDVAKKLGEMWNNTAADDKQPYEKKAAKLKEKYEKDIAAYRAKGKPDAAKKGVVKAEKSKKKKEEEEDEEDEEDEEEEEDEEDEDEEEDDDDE
# Chain of TLR-2 in which His-tag was added to the N-terminus (His-tag-added TLR-2) (O60603 whole entry): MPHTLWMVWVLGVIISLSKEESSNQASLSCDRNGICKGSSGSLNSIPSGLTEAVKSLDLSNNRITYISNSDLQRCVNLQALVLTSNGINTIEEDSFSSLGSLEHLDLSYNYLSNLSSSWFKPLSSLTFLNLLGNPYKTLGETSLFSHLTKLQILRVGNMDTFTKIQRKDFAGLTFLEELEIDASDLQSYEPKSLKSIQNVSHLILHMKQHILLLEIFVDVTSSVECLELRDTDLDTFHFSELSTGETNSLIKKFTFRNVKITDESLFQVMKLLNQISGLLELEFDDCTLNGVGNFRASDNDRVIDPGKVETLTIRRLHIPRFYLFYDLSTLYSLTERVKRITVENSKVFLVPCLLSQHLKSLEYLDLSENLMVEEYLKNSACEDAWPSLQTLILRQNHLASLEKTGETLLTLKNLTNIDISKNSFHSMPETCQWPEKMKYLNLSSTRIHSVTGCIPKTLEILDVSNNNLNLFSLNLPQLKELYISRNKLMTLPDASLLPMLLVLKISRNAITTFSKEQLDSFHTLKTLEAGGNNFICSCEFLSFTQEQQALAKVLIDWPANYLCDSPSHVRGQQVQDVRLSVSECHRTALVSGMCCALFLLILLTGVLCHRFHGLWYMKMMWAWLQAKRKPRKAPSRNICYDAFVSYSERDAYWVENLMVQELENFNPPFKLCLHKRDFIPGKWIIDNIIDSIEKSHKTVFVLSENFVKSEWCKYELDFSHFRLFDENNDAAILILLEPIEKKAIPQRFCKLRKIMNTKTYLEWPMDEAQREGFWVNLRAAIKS
substance,measurement,setting,value
HMGB1 protein (High-mobility group box 1 protein) (ligand),"HMGB1/TLR-2 (HMGB1 band corrected for TLR-2, relative to lane '+' = 100)",[1],60
same,"HMGB1/TLR-2 (HMGB1 band corrected for TLR-2, relative to lane '+' = 100)",[2],100
same,"HMGB1/TLR-2 (HMGB1 band corrected for TLR-2, relative to lane '+' = 100)",[3],113
same,"HMGB1/TLR-2 (HMGB1 band corrected for TLR-2, relative to lane '+' = 100)",[4],61
same,"HMGB1/TLR-2 (HMGB1 band corrected for TLR-2, relative to lane '+' = 100)",[5],29
same,"HMGB1/TLR-2 (HMGB1 band corrected for TLR-2, relative to lane '+' = 100)",[6],108
same,"HMGB1/TLR-2 (HMGB1 band corrected for TLR-2, relative to lane '+' = 100)",[7],84
same,"HMGB1/TLR-2 (HMGB1 band corrected for TLR-2, relative to lane '+' = 100)",[8],85
